Test [1] deals with T1, SIRPγ extracellular domain (human, UniProt Q9P1W8 29-360).
T1 construct: also called hSIRPγ - ECD
The test is described as follows: SPR Biacore T200, antibody on Protein A chip, 1:1 Langmuir fit.

In test [2] the target is T2, extracellular domain of SIRPα v1-DLN (e.g. SIRPα1) (human, UniProt P78324 31-373).
T2 construct: also called hSIRPα - ECD (v1)
The test is described as above.

The target in test [3] is T3, SIRPβ extracellular domain (human, UniProt O00241 30-371).
T3 construct: also called hSIRPβ - ECD
T3 chain: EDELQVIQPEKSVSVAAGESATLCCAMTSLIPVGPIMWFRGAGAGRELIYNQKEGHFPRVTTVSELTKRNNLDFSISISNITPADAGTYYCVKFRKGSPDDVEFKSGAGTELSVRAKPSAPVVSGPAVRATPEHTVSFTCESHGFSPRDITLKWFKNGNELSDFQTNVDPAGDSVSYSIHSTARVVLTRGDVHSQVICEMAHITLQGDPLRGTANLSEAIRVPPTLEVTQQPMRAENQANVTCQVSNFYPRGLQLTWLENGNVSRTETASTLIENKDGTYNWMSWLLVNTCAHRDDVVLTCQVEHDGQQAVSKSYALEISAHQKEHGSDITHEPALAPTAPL
The description is as above.

Test [4] has as its target T4, cynomolgus SIRPα on cells (cynomolgus, UniProt P78324 31-373 (human entry)).
T4 construct: also called cyno SIRPα-CHO; Cyno SIRPα-CHO-K1; not shown: Transmembrane and cytoplasmic region of cynomolgus SIRPα
T4 chain: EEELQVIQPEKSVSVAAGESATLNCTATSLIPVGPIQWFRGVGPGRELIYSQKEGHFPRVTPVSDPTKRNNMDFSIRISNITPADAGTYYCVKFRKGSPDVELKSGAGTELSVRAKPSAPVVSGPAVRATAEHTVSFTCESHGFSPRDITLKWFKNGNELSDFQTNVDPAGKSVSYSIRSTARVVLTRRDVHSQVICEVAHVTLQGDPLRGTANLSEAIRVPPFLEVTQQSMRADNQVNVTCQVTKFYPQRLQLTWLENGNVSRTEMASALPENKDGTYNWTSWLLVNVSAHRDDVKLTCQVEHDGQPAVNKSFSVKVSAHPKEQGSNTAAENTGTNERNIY
The test can be described thus: cell binding, Cyno SIRPα-CHO-K1 cells, 100 nM antibody.

In test [5] the target is T5, mouse SIRPα on cells (mouse, UniProt P97797 32-513).
T5 construct: whole, on cells; also called mouse SIRPα-CHO-K1; Ms SIRPα-CHO-K1
T5 sequence (looked up): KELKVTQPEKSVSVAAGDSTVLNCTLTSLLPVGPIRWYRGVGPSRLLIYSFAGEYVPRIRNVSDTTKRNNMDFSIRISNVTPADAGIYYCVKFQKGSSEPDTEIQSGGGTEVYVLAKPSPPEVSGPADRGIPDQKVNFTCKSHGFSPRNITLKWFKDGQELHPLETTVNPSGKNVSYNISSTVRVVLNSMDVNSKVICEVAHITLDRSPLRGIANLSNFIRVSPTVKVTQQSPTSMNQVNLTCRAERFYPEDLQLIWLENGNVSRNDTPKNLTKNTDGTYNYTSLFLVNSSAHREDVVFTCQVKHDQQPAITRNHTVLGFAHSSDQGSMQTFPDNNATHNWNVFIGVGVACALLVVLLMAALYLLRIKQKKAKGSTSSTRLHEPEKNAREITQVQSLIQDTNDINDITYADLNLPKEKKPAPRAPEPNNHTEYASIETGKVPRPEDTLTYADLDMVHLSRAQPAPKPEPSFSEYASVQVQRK
The test is described as follows: flow cytometry of mouse CD11b positive cells, FL2-H anti-human PE; concentration not given.

In a further test the target is T6, human SIRPβ-Fc (human).
T6 construct: a signal peptide may be part of the entry
The test is described as follows: BLI Octet, antigen-Fc on biosensor.

For test [6], the target named is T7, human SIRPα v2-Fc (SIRPα2 extracellular domain fused to human IGHG1_Fc) (human, UniProt P78324 31-373; P0DOX5 223-449 = IgG part).
T7 construct: as m38; also called V2 (e.g. SIRPα2); SIRPα V2:ESE
The test is described as follows: BLI Octet, antigen-Fc on biosensor.

For test [7], the target named is T8, human SIRPα v5-Fc (SIRPα5 extracellular domain fused to human IGHG1_Fc) (human, UniProt P78324 31-373; P0DOX5 223-449 = IgG part).
T8 construct: as m38; also called V5 (e.g. SIRPα5)
The test is described as follows: BLI Octet, antigen-Fc on biosensor.

Test [8] deals with T9, human SIRPα v1-Fc (SIRPα1 extracellular domain fused to human IGHG1_Fc) (human, UniProt P78324 31-373; P0DOX5 223-449 = IgG part).
T9 construct: also called V1 (e.g. SIRPα1); SIRPα V1: DLN
The test can be described thus: BLI Octet, antigen-Fc on biosensor.

Test [9] deals with T10, human SIRPα v4-Fc (SIRPα4 extracellular domain fused to human IGHG1_Fc) (human, UniProt P78324 31-373; P0DOX5 223-449 = IgG part).
T10 construct: as m38; also called V4 (e.g. SIRPα4)
The test can be described thus: BLI Octet, antigen-Fc on biosensor.

Test [10] has as its target T11, mouse SIRPα-Fc (mouse).
T11 construct: a signal peptide may be part of the entry; also called Ms; Ms SIRPα-Fc
The test is described as follows: BLI Octet, antigen-Fc on biosensor.

Test [11] deals with T12, human SIRPα v3-Fc (SIRPα3 extracellular domain fused to human IGHG1_Fc) (human, UniProt P78324 31-373; P0DOX5 223-449 = IgG part).
T12 construct: as m38; also called V3 (e.g. SIRPα3)
The test can be described thus: BLI Octet, antigen-Fc on biosensor.

The next test concerns the target T13, human SIRPγ-Fc (human).
T13 construct: a signal peptide may be part of the entry
The test is described as follows: BLI Octet, antigen-Fc on biosensor.

The target of test [12] is T14, human SIRPα v6-Fc (SIRPα6 extracellular domain fused to human IGHG1_Fc) (human, UniProt P78324 31-373; P0DOX5 223-449 = IgG part).
T14 construct: as m38; also called V6 (e.g. SIRPα6)
The test is described as follows: BLI Octet, antigen-Fc on biosensor.

Another test has as its target T15, human SIRPα on cells (human, UniProt P78324 31-504).
T15 construct: whole, on cells; also called human SIRPα-CHO; Hu SIRPα-CHO-K1
The test is described as follows: cell binding, Hu SIRPα-CHO-K1 cells, 100 nM antibody.

For the next test, the target named is T16, cyno SIRPα-Fc (cynomolgus).
T16 construct: a signal peptide may be part of the entry
The test is described as follows: BLI Octet, antigen-Fc on biosensor.

A further test concerns the target T17, NOD/SCID mouse SIRPα-Fc (mouse (NOD/SCID)).
T17 construct: a signal peptide may be part of the entry; also called NOD/SCID Ms SIRPα-Fc
The test is described as follows: BLI Octet, antigen-Fc on biosensor.

For test [13], the target named is T11, mouse SIRPα-Fc. The test can be described thus: BLI Octet, antigen-Fc on biosensor. This is another data set of the same source.
Test [14] concerns the target T5, mouse SIRPα on cells. The test is described as follows: cell binding, Ms SIRPα-CHO-K1 cells, 100 nM antibody.

Changes are numbered by the printed parent chain. Names and notes keep the numbering of the source.

T17 sequence (chain, as listed by the source limits assumed): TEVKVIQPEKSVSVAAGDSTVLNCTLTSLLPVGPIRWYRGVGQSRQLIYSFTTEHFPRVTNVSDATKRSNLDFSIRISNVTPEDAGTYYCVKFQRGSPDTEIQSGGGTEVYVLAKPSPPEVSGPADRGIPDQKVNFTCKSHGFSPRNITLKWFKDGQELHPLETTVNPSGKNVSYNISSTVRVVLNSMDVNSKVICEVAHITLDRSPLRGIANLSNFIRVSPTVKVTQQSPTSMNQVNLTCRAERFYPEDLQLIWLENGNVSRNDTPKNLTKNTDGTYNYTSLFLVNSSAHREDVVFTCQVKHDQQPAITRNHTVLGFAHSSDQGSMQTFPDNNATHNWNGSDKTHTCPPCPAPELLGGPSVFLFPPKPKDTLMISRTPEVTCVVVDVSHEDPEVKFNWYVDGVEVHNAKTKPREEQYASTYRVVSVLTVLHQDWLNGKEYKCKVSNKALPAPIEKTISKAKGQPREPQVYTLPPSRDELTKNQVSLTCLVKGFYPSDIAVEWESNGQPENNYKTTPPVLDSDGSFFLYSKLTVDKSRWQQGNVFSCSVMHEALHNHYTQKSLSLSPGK
T1 sequence (Q9P1W8 29-360 limits assumed): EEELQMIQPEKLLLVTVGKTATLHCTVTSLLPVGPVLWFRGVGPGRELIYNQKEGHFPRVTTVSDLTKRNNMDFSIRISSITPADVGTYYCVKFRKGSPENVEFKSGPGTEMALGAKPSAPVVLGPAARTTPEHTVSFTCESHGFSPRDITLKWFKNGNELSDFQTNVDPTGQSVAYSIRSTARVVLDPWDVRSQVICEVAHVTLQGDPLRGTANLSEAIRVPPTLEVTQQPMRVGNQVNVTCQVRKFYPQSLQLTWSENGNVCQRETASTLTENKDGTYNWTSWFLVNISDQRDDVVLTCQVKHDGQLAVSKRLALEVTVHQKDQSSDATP

B1: SIRPAB-12-K322A (antibody, human IgG1, kappa)
light: DIQMTQSPSSVSASVGDRVTITCRASQGISSWLAWYQQKPGKAPKLLIYAASNLQSGVPSRFSGSGSGTDFTLTISSLQPEDFATYYCQQGASFPITFGGGTKVEIKRTVAAPSVFIFPPSDEQLKSGTASVVCLLNNFYPREAKVQWKVDNALQSGNSQESVTEQDSKDSTYSLSSTLTLSKADYEKHKVYACEVTHQGLSSPVTKSFNRGEC
heavy: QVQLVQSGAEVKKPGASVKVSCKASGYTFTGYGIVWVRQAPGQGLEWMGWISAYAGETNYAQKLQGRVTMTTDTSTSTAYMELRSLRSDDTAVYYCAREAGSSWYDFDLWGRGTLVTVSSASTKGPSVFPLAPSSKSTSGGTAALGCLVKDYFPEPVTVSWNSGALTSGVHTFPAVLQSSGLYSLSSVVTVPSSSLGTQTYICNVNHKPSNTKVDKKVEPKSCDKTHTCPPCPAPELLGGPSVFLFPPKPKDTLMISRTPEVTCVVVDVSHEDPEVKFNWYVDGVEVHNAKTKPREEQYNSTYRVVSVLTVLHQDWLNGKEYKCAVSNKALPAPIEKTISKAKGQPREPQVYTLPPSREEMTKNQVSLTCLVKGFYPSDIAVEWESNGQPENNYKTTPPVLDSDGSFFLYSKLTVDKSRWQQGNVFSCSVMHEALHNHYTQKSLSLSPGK
notes: human IgG1 with K322A
For B1, the dissociation constant (Kd) in test [1] turned out to be 0.351 nM; in test [2] it was 0.424 nM; in test [3], 2.08 nM.

B2: SIRPAB-12 (antibody, human IgG1, kappa)
light: B1 light
heavy: not shown
Turning to B2, the results for the “fold increase over background (100 nM)” value (in test [4]; in the test with human SIRPα on cells) were 2220 fold and 2350 fold, respectively. Further, the binding result in the test with mouse SIRPα on cells [5] and with mouse SIRPα-Fc [10] was “no binding” throughout. In addition, the Kd was 3.35 nM with human SIRPβ-Fc; 15.4 nM in [6]; 4.87 nM in [7]; 0.81 nM in [8]; 8.13 nM in test [9]; 0.53 nM in test [11]. Also, the results for the dissociation constant Kd (with human SIRPγ-Fc; in test [12]) were 1.49 nM and 1.58 nM, respectively. Besides, the koff in the test with human SIRPβ-Fc was determined as 0.00445 s⁻¹; in [6], 0.0151 s⁻¹; in test [7] it was 0.00697 s⁻¹; in test [8], 0.00107 s⁻¹; in [9], 0.0109 s⁻¹; in test [11] it was 0.000694 s⁻¹. For the same molecule, the koff in the test with human SIRPγ-Fc came to 0.00218 s⁻¹; in test [12] it was 0.00256 s⁻¹. In addition, the kon with human SIRPβ-Fc came to 1.33e+06 M⁻¹ s⁻¹; in test [6], 980000 M⁻¹ s⁻¹; in test [7] it was 1.43e+06 M⁻¹ s⁻¹; in test [8], 1.31e+06 M⁻¹ s⁻¹; in test [9], 1.35e+06 M⁻¹ s⁻¹; in [11], 1.31e+06 M⁻¹ s⁻¹. In addition, the association rate constant (kon) with human SIRPγ-Fc came to 1.46e+06 M⁻¹ s⁻¹; in test [12], 1.63e+06 M⁻¹ s⁻¹.

B3: SIRPAB-11 (antibody, human IgG1, kappa)
light: B1 light
heavy: not shown
notes: also called SIRPAB-11-IgG1; SIRPAB-11 IgG1 antibody
With B3, the figures for the “fold increase over background (100 nM)” value (in test [4]; with human SIRPα on cells) were 1950 fold and 1890 fold, respectively. The binding result in the test with mouse SIRPα on cells [5] and with mouse SIRPα-Fc [10] was “no binding” throughout. The dissociation constant Kd is 0.32 nM in the test with human SIRPβ-Fc; 4.4 nM in test [6]; 0.611 nM in test [7]; 0.13 nM in test [8]; 4.9 nM in the test with cyno SIRPα-Fc; 1.52 nM in [9]. Also, the equilibrium dissociation constant (Kd) was 0.145 nM in test [11], 0.13 nM with human SIRPγ-Fc and 0.183 nM in [12]. The dissociation rate constant (koff) with human SIRPβ-Fc came out at 0.000473 s⁻¹; in test [6], 0.00559 s⁻¹; in test [7], 0.00106 s⁻¹; in test [8], 0.0002 s⁻¹; in the test with cyno SIRPα-Fc it was 0.00869 s⁻¹; in test [9], 0.00228 s⁻¹. The off-rate constant (koff) amounted to 0.0002 s⁻¹ in test [11], 0.000205 s⁻¹ in the test with human SIRPγ-Fc and 0.000356 s⁻¹ in test [12]. Besides, the kon came out at 1.49e+06 M⁻¹ s⁻¹ with human SIRPβ-Fc; 1.27e+06 M⁻¹ s⁻¹ in test [6]; 1.73e+06 M⁻¹ s⁻¹ in [7]; 1.49e+06 M⁻¹ s⁻¹ in [8]; 1.77e+06 M⁻¹ s⁻¹ with cyno SIRPα-Fc; 1.5e+06 M⁻¹ s⁻¹ in [9]. In addition, the values for the on-rate (kon) (in test [11]; with human SIRPγ-Fc; in test [12]) were 1.38e+06 M⁻¹ s⁻¹, 1.57e+06 M⁻¹ s⁻¹ and 1.94e+06 M⁻¹ s⁻¹, respectively.

B4: SIRPAB-17 (antibody, human IgG1, kappa, V domains shown)
VH: QVQLQESGPGLVKPSQTLSLTCTVSGGSISSGGYYWSWIRQHPGKGLEWIGAIYYSGPIYYNPSLKSRVTISVDTSKNQFSLKLSSVTAADTAVYYCAREGYHSGMDVWGQGTTVTVSS
VL: DIQMTQSPSSLSASVGDRVTITCQASQDISNYLNWYQQKPGKAPKLLIYDASNLATGVPSRFSGSGSGTDFTFTISSLQPEDIATYYCQQFAYLPWTFGGGTKVEIKR
In the test with NOD/SCID mouse SIRPα-Fc, B4 displayed a Kd of 152 nM, an off-rate constant (koff) of 0.0228 s⁻¹ and a kon of 150000 M⁻¹ s⁻¹. In the test with mouse SIRPα-Fc [13], binding was characterised by a dissociation constant (Kd) of 17.3 nM, the off-rate (koff) came out at 0.00373 s⁻¹ and the kon came to 220000 M⁻¹ s⁻¹. Also, the “fold increase over background (100 nM)” value with mouse SIRPα on cells [14] amounted to 449 fold.

B5: SIRPAB-21 (antibody, human IgG1, kappa, V domains shown)
VH: B4 VH with A98S, R99K
VL: B4 VL with Q27D, N31D, A55E
B5: in the test with NOD/SCID mouse SIRPα-Fc, the Kd turned out to be 5.43 nM, the koff stood at 0.0019 s⁻¹ and the kon turned out to be 350000 M⁻¹ s⁻¹. In the test with mouse SIRPα-Fc [13], this molecule gave a dissociation constant (Kd) of 1.46 nM, a koff of 0.000708 s⁻¹ and a kon of 490000 M⁻¹ s⁻¹. The “fold increase over background (100 nM)” value in the test with mouse SIRPα on cells [14] is 2440 fold.

B6: … ANTIBODY (SIRPα reference antibody with light chain SEQ ID NO:224 and heavy chain SEQ ID NO:225) (antibody, human IgG1, kappa, V domains shown)
VH: EVQLQQSGAELVKPGASVKLSCTASGFNIKDYYIHWVQQRTEQGLEWIGRIDPEDGETKYAPKFQDKATITADTSSNTAYLHLSSLTSEDTAVYYCARWGAYWGQGTLVTVSA
VL: QIVLTQSPAIMSASPGEKVTLTCSASSSVSSSYLYWYQQKPGSSPKLWIYSTSNLASGVPARFSGSGSGTSYSLTISSMEAEDAASYFCHQWSSYPRTFGAGTKLELKR
Consider B6, for which the Kd in test [1] turned out to be 1.47 nM; in test [2], 3.65 nM; in test [3], 2.98 nM.
